Assay [1] deals with T1, Per125 wtATTR extract (human, UniProt P02766 21-147). The assay can be described thus: pulldown assay.
The target of assay [2] is T2, KEN hATTR extract (human, UniProt P02766 21-147). Kind of assay: pulldown assay.
A further assay has as its target T3, HIG ALκ1 extract.
T3 construct: Human AL amyloid extract; also called ALκ HIG extract
The assay can be described thus: pulldown assay.

Assay [3] has as its target T4, TAL ALκ liver extract.
T4 construct: Human AL amyloid extract; also called ALκ (TAL); ALκ TAL
Kind of assay: pulldown assay.

The target of assay [4] is Per253 wild type (wt) ATTR extract (human, UniProt P02766 21-147). Kind of assay: pulldown assay.
The target in a further assay is SNO hATTR extract (human, UniProt P02766 21-147). The assay can be described thus: pulldown assay.
In another assay the target is T5, CAB ALκ4.
T5 construct: AL amyloid substrate of the pulldown assay
Kind of assay: pulldown assay.

Assay [5] deals with T6, SHI ALλ liver extract.
T6 construct: Human AL amyloid extract; also called ALλ (SHI); ALλ SHI extract
Kind of assay: pulldown assay.

Assay [6] deals with T7, rVλ6Wil fibrils.
T7 construct: domain: λ6 variable domain; Synthetic amyloid-like fibrils; also called rVλWIL; rVλ6Wil synthetic fibrils
The assay can be described thus: pulldown assay.

In another assay the target is T8, TYL ALλ extract.
T8 construct: Human AL amyloid extract; also called ALλ TYL extract
The assay can be described thus: pulldown assay.

In assay [7] the target is T9, Len(1-22) monomer peptide (Homo sapiens (Human), UniProt P06312 21-42).
T9 construct: Analyte in SPR; on beads in the pulldown assay; also called Vκ4(LEN(1-22) beads)
T9 peptide: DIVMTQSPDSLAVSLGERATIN
The assay can be described thus: SPR, antibody as ligand, peptide as analyte. A general note: In SPR one partner is held on a chip, and binding of the other changes the refractive index at the surface.

Assay [8] addresses T7, rVλ6Wil fibrils. The assay can be described thus: EuLISA on rVλ6Wil fibrils; plot with two y axes.
Assay [9] has as its target T7, rVλ6Wil fibrils. Kind of assay: EuLISA on rVλ6Wil fibrils (FIG. 5A).
Assay [10] deals with T1, Per125 wtATTR extract. Kind of assay: EuLISA.
Assay [11] deals with T4, TAL ALκ liver extract. Kind of assay: EuLISA.
The target in assay [12] is T6, SHI ALλ liver extract. Kind of assay: EuLISA.
Assay [13] has as its target T7, rVλ6Wil fibrils. Kind of assay: EuLISA.
In assay [14] the target is T1, Per125 wtATTR extract. The assay can be described thus: plate assay, time-resolved fluorescence (anti-human Fc, streptavidin-europium), 4PL fit.
Method: (§1) The antibody-peptide conjugate was added to the wells in 2-fold serial dilution starting at 100 nM. For wells containing rVλ6WIL, the antibody-peptide conjugate was added to the wells in 2-fold serial dilution starting at 5 nM.
The target in assay [15] is T2, KEN hATTR extract. Described as above.
Method: as §1
The target of assay [16] is T4, TAL ALκ liver extract. The assay is described as above.
Method: as §1
Assay [17] deals with T10, ALλ (BAL) amyloid extract.
T10 construct: Human AL amyloid extract; also called human AL (BAL) amyloid extract
The assay is described as above.
Method: as §1

The target of assay [18] is T6, SHI ALλ liver extract. Described as above.
Method: as §1
In assay [19] the target is T7, rVλ6Wil fibrils. Described as above.
Method: as §1
The target in assay [20] is T11, ALλ (GRA) amyloid extract.
T11 construct: also called ALκ(GRA) amyloid extract
The assay is described as above.
Method: as §1

This is an account of results in US20230416347A1 (UNIVERSITY OF TENNESSEE RESEARCH FOUNDATION, published 2023).

As a reminder, the Kd is the free concentration of one partner at which half of the binding sites on the other are occupied at equilibrium, for simple one-to-one binding. A higher Kd goes with lower affinity. In general, koff refers to the rate constant with which the complex falls apart. High values mean fast dissociation, low ones slow dissociation. The kon is the second-order rate constant of association. As a reminder, the EC50 (read off the curve) is the midpoint of the concentration-response curve. Higher therefore signals a need for much substance. For orientation: EC50 means the concentration needed to bring the measured effect to its halfway point. A lower EC50 goes with greater potency.

Substitutions are numbered along the chain they refer to. Names may count otherwise.

B1: VH9/VL4 (antibody, V domains shown)
VH: QVQLQESGPGLVKPSETLSLTCTVSGFSLSSYGVSWIRQPPGKGLEWLGVIWGDGSTNYHPNLMSRVTISVDTSKSQVLFKLSSVTAADTAVYYCATLDYWGQGTSVTVSS
VL: DVVMTQSPLSLPVTLGQPASISCRSSQSLVHRNGNTYLHWFQQRPGQSPRLLIYKVSNRFSGVPDRFSGSGSGTDFTLKISRVEAEDVGVYFCFQTTYVPNTFGGGTKLEIK
notes: Humanized 11-1F4; also called VH9/VL4 parent
As for B1, the percent bound with Per125 wtATTR extract [1] is 1.36%; with KEN hATTR extract [2], 0.61%; in the assay with HIG ALκ1 extract, 0.19%; with TAL ALκ liver extract [3], 0.72%; in assay [4], 0.8%; with SNO hATTR extract it was 0.41%. Besides, the percent bound with CAB ALκ4 is 2.43%; in the assay with SHI ALλ liver extract [5] it was 0.68%; with rVλ6Wil fibrils [6], 10.4%; with TYL ALλ extract it was 0.56%. The molecule also displayed a Kd in assay [7] of 43 nM. The molecule also came in with an off-rate constant (koff) in assay [7] of 0.0026 s⁻¹. Moreover, in assay [7], the kon was 60400 M⁻¹ s⁻¹. The “EC50 (read off the curve)” value with rVλ6Wil fibrils [8] is around 7 nM. The half-maximal effective concentration (EC50) in the assay with rVλ6Wil fibrils [9] was 7 nM.

B2: m11-1F4 (antibody, V domains shown)
VH: QVQLKESGPGLVAPSQSLSITCTVSGFSLSSYGVSWVRQPPGKGLEWLGVIWGDGSTNYHPNLMSRLSISKDISKSQVLFKLNSLQTDDTATYYCVTLDYWGQGTSVTVSS
VL: B1 VL with S7T, T14S, Q17D, P18Q, F41Y, Q42L, R44K, R50K, V88L, V90L
notes: Murine monoclonal antibody; also called murine parent
Turning to B2, the results for the concentration for a half-maximal effect (EC50) in the assay with Per125 wtATTR extract [10] and with rVλ6Wil fibrils [13] were 1880 nM and 543 nM, respectively. In addition, the LogEC50 with Per125 wtATTR extract [10] was 5.72 -log(M); with TAL ALκ liver extract [11] it was ~3.03 -log(M); in the assay with SHI ALλ liver extract [12], ~4.45 -log(M); with rVλ6Wil fibrils [13], 6.26 -log(M). Also, the Max was 209 with Per125 wtATTR extract [10], around 35100 in the assay with TAL ALκ liver extract [11], around 1510 in the assay with SHI ALλ liver extract [12] and 184 in the assay with rVλ6Wil fibrils [13].

B3: VH9-M64A + VL4 (antibody, V domains shown)
VH: B1 VH with M64A
VL: B1 VL
notes: Humanized 11-1F4 variant
Consider B3, for which, in assay [7], binding was put at a Kd of 13.3 nM, the koff turned out to be 0.00104 s⁻¹ and the association rate constant (kon) was 77900 M⁻¹ s⁻¹.

B4: VH9 + VL4-N33Q (antibody, V domains shown)
VH: B1 VH
VL: B1 VL with N33Q
notes: Humanized 11-1F4 variant
For B4, in [7], the equilibrium dissociation constant (Kd) was 78.4 nM, the koff was determined as 0.00104 s⁻¹ and the on-rate constant (kon) amounted to 13300 M⁻¹ s⁻¹.

B5: VH9 + VL4-G34A (antibody, V domains shown)
VH: B1 VH
VL: B1 VL with G34A
notes: Humanized 11-1F4 variant
With B5, in assay [7], binding was put at a Kd of 30.4 nM, the dissociation rate constant (koff) came out at 0.00181 s⁻¹ and the kon stood at 59500 M⁻¹ s⁻¹.

B6: VH9 + VL4-N33E (antibody, V domains shown)
VH: B1 VH
VL: B1 VL with N33E
notes: Humanized 11-1F4 variant
In assay [7], B6 came in with a dissociation constant (Kd) of 106 nM, a koff of 0.00131 s⁻¹ and a kon of 12300 M⁻¹ s⁻¹.

B7: VH9-G55V + VL4 (antibody, V domains shown)
VH: B1 VH with G55V
VL: B1 VL
notes: Humanized 11-1F4 variant
In assay [7], B7 came in with a Kd of 483 nM, an off-rate constant (koff) of 0.00163 s⁻¹ and a kon of 3380 M⁻¹ s⁻¹.

B8: VH9-D54H + VL4 (antibody, V domains shown)
VH: B1 VH with D54H
VL: B1 VL
notes: Humanized 11-1F4 variant
For B8, in assay [7], the dissociation constant (Kd) was found to be 235 nM, the koff came to 0.00139 s⁻¹ and the kon was 5930 M⁻¹ s⁻¹.

B9: VH9-D54S + VL4 (antibody, V domains shown)
VH: B1 VH with D54S
VL: B1 VL
notes: Humanized 11-1F4 variant
In the case of B9, in [7], the equilibrium dissociation constant (Kd) was 60.5 nM, the koff came out at 0.000139 s⁻¹ and the kon came to 2300 M⁻¹ s⁻¹.

B10: VH9 + VL4-N33S (antibody, V domains shown)
VH: B1 VH
VL: B1 VL with N33S
notes: Humanized 11-1F4 variant
With B10, in assay [7], the dissociation constant (Kd) worked out at 66.9 nM, the off-rate constant (koff) stood at 0.000954 s⁻¹ and the kon was 14300 M⁻¹ s⁻¹.

B11: VH9-D54Q + VL4 (antibody, V domains shown)
VH: B1 VH with D54Q
VL: B1 VL
notes: Humanized 11-1F4 variant
In [7], B11 yielded a dissociation constant Kd of 256 nM, an off-rate (koff) of 0.000997 s⁻¹ and an association rate constant (kon) of 3900 M⁻¹ s⁻¹.

B12: VH9-G55A + VL4 (antibody, V domains shown)
VH: B1 VH with G55A
VL: B1 VL
notes: Humanized 11-1F4 variant
In the case of B12, in assay [7], the affinity, expressed as Kd, was 17.2 nM; the koff was found to be 0.000484 s⁻¹; the kon came to 28200 M⁻¹ s⁻¹.

B13: VH9-M64I + VL4 (antibody, V domains shown)
VH: B1 VH with M64I
VL: B1 VL
notes: Humanized 11-1F4 variant
For the molecule B13, in assay [7], the Kd came to 20.7 nM, the koff turned out to be 0.00192 s⁻¹ and the on-rate (kon) turned out to be 92900 M⁻¹ s⁻¹.

B14: VH9-M64L + VL4 (antibody, V domains shown)
VH: B1 VH with M64L
VL: B1 VL
notes: Humanized 11-1F4 variant
In [7], B14 yielded a Kd of 22.4 nM, a koff of 0.00208 s⁻¹ and a kon of 93000 M⁻¹ s⁻¹.

B15: VH9-D54A + VL4 (antibody, V domains shown)
VH: B1 VH with D54A
VL: B1 VL
notes: Humanized 11-1F4 variant
In assay [7], B15 displayed a Kd of 2180 nM, a koff of 0.000778 s⁻¹ and a kon of 356 M⁻¹ s⁻¹.

B16: VH9-D54E + VL4 (antibody, V domains shown)
VH: B1 VH with D54E
VL: B1 VL
notes: Humanized 11-1F4 variant
In assay [7], B16 returned a Kd of 163 nM, a koff of 0.00135 s⁻¹ and a kon of 8280 M⁻¹ s⁻¹.

B17: VH9 + VL4-N33H (antibody, V domains shown)
VH: B1 VH
VL: B1 VL with N33H
notes: Humanized 11-1F4 variant
For the molecule B17, in assay [7], binding was put at a Kd of 56.6 nM, the dissociation rate constant (koff) came to 0.000743 s⁻¹ and the kon came out at 13100 M⁻¹ s⁻¹.

B18: VH9-M64V + VL4 (antibody, V domains shown)
VH: B1 VH with M64V
VL: B1 VL
notes: Humanized 11-1F4 variant
In assay [7], B18 showed a Kd of 21.8 nM, a koff of 0.00052 s⁻¹ and a kon of 23800 M⁻¹ s⁻¹.

B19: VH9 + VL4-N33A (antibody, V domains shown)
VH: B1 VH
VL: B1 VL with N33A
notes: Humanized 11-1F4 variant
In [7], B19 returned a dissociation constant Kd of 88.5 nM, a koff of 0.001 s⁻¹ and an association rate constant (kon) of 11300 M⁻¹ s⁻¹.

B20: PF.1 (VH9-D54E/VL4-N33S-p5R with VSPSV spacer, perfusion 1) (antibody, human IgG1, kappa)
heavy: not shown
light: DVVMTQSPLSLPVTLGQPASISCRSSQSLVHRSGNTYLHWFQQRPGQSPRLLIYKVSNRFSGVPDRFSGSGSGTDFTLKISRVEAEDVGVYFCFQTTYVPNTFGGGTKLEIKRTVAAPSVFIFPPSDEQLKSGTASVVCLLNNFYPREAKVQWKVDNALQSGNSQESVTEQDSKDSTYSLSSTLTLSKADYEKHKVYACEVTHQGLSSPVTKSFNRGECVSPSVRAQRAQARQARQAQRAQRAQARQARQ
notes: Antibody-peptide fusion, p5R on the light chain through VSPSV; perfusion culture 1 day, cation exchange, over 99% intact; also called VH9-D54E/VL4-N33S-VSPSV-p5R
With B20, the half-maximal effective concentration (EC50) with Per125 wtATTR extract [14] was 0.18 nM; with KEN hATTR extract [15], 0.45 nM; with TAL ALκ liver extract [16] it was 0.4 nM; in assay [17], 0.36 nM; in the assay with SHI ALλ liver extract [18], 0.32 nM; with rVλ6Wil fibrils [19], 0.15 nM. In [20], this molecule showed a half-maximal effective concentration (EC50) of 0.6 nM.
